Reference: patent US20250129143A1

Tests used:
[1] = biological target: K11 (human); experiment: immunoprecipitation from HCT-116 cell extract; gel region of 62 kDa or more; quantitative mass spectrometry with stable isotope-labeled peptides [panel A]
[2] = biological target: M1 (human); experiment: as above
[3] = biological target: K63 (human); experiment: as above
[4] = biological target: K6 (human); experiment: as above
[5] = biological target: K48 (human); experiment: as above
[6] = biological target: K29 (human); experiment: as above
[7] = biological target: K33 (human); experiment: as above
[8] = biological target: polyubiquitinated substrates (HCT-116 cell extract); experiment: as above
[9] = biological target: K27 (human); experiment: as above
[10] = biological target: K11 (human); experiment: immunoprecipitation from HCT-116 cell extract; quantitative mass spectrometry; pie chart [panel B]
[11] = biological target: M1 (human); experiment: as above
[12] = biological target: K63 (human); experiment: as above
[13] = biological target: K6 (human); experiment: as above
[14] = biological target: K48 (human); experiment: as above
[15] = biological target: K29 (human); experiment: as above
[16] = biological target: K33 (human); experiment: as above
[17] = biological target: K27 (human); experiment: as above
[18] = biological target: polyubiquitinated substrates (HCT-116 cell extract); experiment: immunoprecipitation (Halo tag-fused wild-type monobody) from HCT-116 cell extract; gel region of 62 kDa or more; quantitative mass spectrometry with stable isotope-labeled peptides [panel A]

K11 chain-derived peptide in the immunoprecipitate [1] | M1 chain-derived peptide in the immunoprecipitate [2] | K63 chain-derived peptide in the immunoprecipitate [3] | K6 chain-derived peptide in the immunoprecipitate [4] | K48 chain-derived peptide in the immunoprecipitate [5] | K29 chain-derived peptide in the immunoprecipitate [6] | K33 chain-derived peptide in the immunoprecipitate [7] | EST peptide (…) in the immunoprecipitate [8] | total ubiquitin in the immunoprecipitate (EST + K63 peptides) [8] | K27 chain-derived peptide in the immunoprecipitate [9] | percentage of this chain among the 8 ubiquitin chain-derived peptides in the immunoprecipitate (control subtracted) [10] | percentage of this chain among the 8 ubiquitin chain-derived peptides in the immunoprecipitate (control subtracted) [11] | percentage of this chain among the 8 ubiquitin chain-derived peptides in the immunoprecipitate (control subtracted) [12] | percentage of this chain among the 8 ubiquitin chain-derived peptides in the immunoprecipitate (control subtracted) [13] | percentage of this chain among the 8 ubiquitin chain-derived peptides in the immunoprecipitate (control subtracted) [14] | percentage of this chain among the 8 ubiquitin chain-derived peptides in the immunoprecipitate (control subtracted) [15] | percentage of this chain among the 8 ubiquitin chain-derived peptides in the immunoprecipitate (control subtracted) [16] | percentage of this chain among the 8 ubiquitin chain-derived peptides in the immunoprecipitate (control subtracted) [17] | EST peptide (…) in the immunoprecipitate [18] | total ubiquitin in the immunoprecipitate (EST + K63 peptides) [18] | Substance
0.02 fmol | 0 fmol | 0 fmol | 0 fmol | 0.04 fmol | 0 fmol | 0 fmol | 0.19 fmol | 0.19 fmol | 0.03 fmol |  |  |  |  |  |  |  |  |  |  | Control IgG (antibody)
3.62 fmol | 0.02 fmol | 9.59 fmol | 2.15 fmol | 29.1 fmol | 3.69 fmol | 0.2 fmol | 106 fmol | 116 fmol | 0.11 fmol | 7% | 0% | 20% | 5% | 60% | 8% | 0% | 0% |  |  | anti-polyubiquitin monoclonal antibody FK2 (0918-2, Nippon Bio-Test)
1.65 fmol | 0 fmol | 2.47 fmol | 1.32 fmol | 21.8 fmol | 20.1 fmol | 0.11 fmol | 72.1 fmol | 74.5 fmol | 0.08 fmol | 3% | 0% | 5% | 3% | 46% | 43% | 0% | 0% |  |  | anti-ubiquitin antibody P4D1 (sc-8017, Santa Cruz)
 |  |  |  |  |  |  |  |  |  |  |  |  |  |  |  |  |  | 12.3 fmol | 13 fmol | wild-type Monobody (FN3) (designed binder)
